# Results from patent US10555963B2, “Klotho protein and related compounds for the treatment and diagnosis of cancer” (TEL HASHOMER MEDICAL RESEARCH INFRASTRUCTURE AND SERVICES …, priority 2007, dated 2020).
# B1: soluble klotho protein: V5-tagged entire extracellular domain of mouse Klotho protein (residues 31 to 982 of SEQ ID NO: 3) from Drosophila cells (protein)
# chain: RCLSAEPGQGAQTWARFARAPAPEAAGLLHDTFPDGFLWAVGSAAYQTEGGWRQHGKGASIWDTFTHHSGAAPSDSPIVVAPSGAPSPPLSSTGDVASDSYNNVYRDTEGLRELGVTHYRFSISWARVLPNGTAGTPNREGLRYYRRLLERLRELGVQPVVTLYHWDLPQRLQDTYGGWANRALADHFRDYAELCFRHFGGQVKYWITIDNPYVVAWHGYATGRLAPGVRGSSRLGYLVAHNLLLAHAKVWHLYNTSFRPTQGGRVSIALSSHWINPRRMTDYNIRECQKSLDFVLGWFAKPIFIDGDYPESMKNNLSSLLPDFTESEKRLIRGTADFFALSFGPTLSFQLLDPNMKFRQLESPNLRQLLSWIDLEYNHPPIFIVENGWFVSGTTKRDDAKYMYYLKKFIMETLKAIRLDGVDVIGYTAWSLMDGFEWHRGYSIRRGLFYVDFLSQDKELLPKSSALFYQKLIEDNGFPPLPENQPLEGTFPCDFAWGVVDNYVQVDTTLSQFTDPNVYLWDVHHSKRLIKVDGVVAKKRKPYCVDFSAIRPQITLLREMRVTHFRFSLDWALILPLGNQTQVNHTVLHFYRCMISELVHANITPVVALWQPAAPHQGLPHALAKHGAWENPHTALAFADYANLCFKELGHWVNLWITMNEPNTRNMTYRAGHHLLRAHALAWHLYDDKFRAAQKGKISIALQADWIEPACPFSQNDKEVAERVLEFDIGWLAEPIFGSGDYPRVMRDWLNQKNNFLLPYFTEDEKKLVRGSFDFLAVSHYTTILVDWEKEDPMKYNDYLEVQEMTDITWLNSPSQVAVVPWGLRKVLNWLRFKYGDLPMYVTANGIDDDPHAEQDSLRIYYIKNYVNEALKAYVLDDINLCGYFAYSLSDRSAPKSGFYRYAANQFEPKPSMKHYRRIIDSNGFLGSGTLGRFCPEEYTVCTECGFFQTRK
# modifications: V5 tag
# B2: sol-hKL: Soluble human Klotho protein (hKL) obtained from R&D Systems (protein, UniProt Q9UEF7 34-981, looked up)
# extracellular domain: EPGDGAQTWARFSRPPAPEAAGLFQGTFPDGFLWAVGSAAYQTEGGWQQHGKGASIWDTFTHHPLAPPGDSRNASLPLGAPSPLQPATGDVASDSYNNVFRDTEALRELGVTHYRFSISWARVLPNGSAGVPNREGLRYYRRLLERLRELGVQPVVTLYHWDLPQRLQDAYGGWANRALADHFRDYAELCFRHFGGQVKYWITIDNPYVVAWHGYATGRLAPGIRGSPRLGYLVAHNLLLAHAKVWHLYNTSFRPTQGGQVSIALSSHWINPRRMTDHSIKECQKSLDFVLGWFAKPVFIDGDYPESMKNNLSSILPDFTESEKKFIKGTADFFALCFGPTLSFQLLDPHMKFRQLESPNLRQLLSWIDLEFNHPQIFIVENGWFVSGTTKRDDAKYMYYLKKFIMETLKAIKLDGVDVIGYTAWSLMDGFEWHRGYSIRRGLFYVDFLSQDKMLLPKSSALFYQKLIEKNGFPPLPENQPLEGTFPCDFAWGVVDNYIQVDTTLSQFTDLNVYLWDVHHSKRLIKVDGVVTKKRKSYCVDFAAIQPQIALLQEMHVTHFRFSLDWALILPLGNQSQVNHTILQYYRCMASELVRVNITPVVALWQPMAPNQGLPRLLARQGAWENPYTALAFAEYARLCFQELGHHVKLWITMNEPYTRNMTYSAGHNLLKAHALAWHVYNEKFRHAQNGKISIALQADWIEPACPFSQKDKEVAERVLEFDIGWLAEPIFGSGDYPWVMRDWLNQRNNFLLPYFTEDEKKLIQGTFDFLALSHYTTILVDSEKEDPIKYNDYLEVQEMTDITWLNSPSQVAVVPWGLRKVLNWLKFKYGDLPMYIISNGIDDGLHAEDDQLRVYYMQNYINEALKAHILDGINLCGYFAYSFNDRTAPRFGLYRYAADQFEPKASMKHYRKIIDSNGFPGPETLERFCPEEFTVCTECSFFHTRKS
# modifications: extracellular domain
# notes: Soluble human Klotho protein (hKL) obtained from R&D Systems
# B3: sol-hKL1: Human KL1 (residues 34-549 of SEQ ID: 2) obtained from PeproTech Inc. (protein)
# chain: EPGDGAQTWARFSRPPAPEAAGLFQGTFPDGFLWAVGSAAYQTEGGWQQHGKGASIWDTFTHHPLAPPGDSRNASLPLGAPSPLQPATGDVASDSYNNVFRDTEALRELGVTHYRFSISWARVLPNGSAGVPNREGLRYYRRLLERLRELGVQPVVTLYHWDLPQRLQDAYGGWANRALADHFRDYAELCFRHFGGQVKYWITIDNPYVVAWHGYATGRLAPGIRGSPRLGYLVAHNLLLAHAKVWHLYNTSFRPTQGGQVSIALSSHWINPRRMTDHSIKECQKSLDFVLGWFAKPVFIDGDYPESMKNNLSSILPDFTESEKKFIKGTADFFALCFGPTLSFQLLDPHMKFRQLESPNLRQLLSWIDLEFNHPQIFIVENGWFVSGTTKRDDAKYMYYLKKFIMETLKAIKLDGVDVIGYTAWSLMDGFEWHRGYSIRRGLFYVDFLSQDKMLLPKSSALFYQKLIEKNGFPPLPENQPLEGTFPCDFAWGVVDNYIQVSQLTKPISSLTKPYH
# Legend:
# Panc1 cells [1] = assay: MTT proliferation assay, soluble klotho protein and 5-FU; conditions: 5-FU 500 μM alone; 48 hr
# Description: 3000 cells/well were plated in 96-well plates, cultured in the appropriate culture media, and treated for 48 hrs as indicated.
# Medium alone served as control. 48 hr after incubation, cells were cultured for 2 hr with 500 μg/ml MTT reagent, the medium was aspirated, and the cells were dissolved in dimethyl sulfoxide (DMSO). Absorbance of the formazan product was measured by an enzyme-linked immunosorbent assay reader to provide a measure of viability.
# MCF-7 cells = assay: MTT proliferation assay after klotho protein down-regulation by siRNA; assay type: cell-based, human; conditions: 48 h; compared to siRNAc; p<0.05
# Description: (§1) Klotho protein directed stealth siRNA duplex oligoribonucleotides and control siRNAs were both designed and purchased from Invitrogen. Lipofectamine 2000 (Invitrogen), and was used to transfect the cells with 100 pmoles of siRNA.
# The medium was aspirated, and the cells were dissolved by dimethyl sulfoxide (DMSO).
# (§2) Three klotho protein-directed siRNAs were designed and tested for their ability to silence klotho protein expression in MCF-7 cells, compared to a control siRNA (siRNAc).
# klotho protein mRNA = assay: Silencing of klotho protein expression by siRNA in MCF-7 cells (mRNA levels); assay type: cell-based, human; conditions: MCF-7 cells transfected with siRNA
# Text: as §1
# For breast cell studies, total RNA was extracted using the RNA isolation kit (Sigma) and processed to cDNA with RevertAid (Fermentas, Vilnius, Lithuania). Primers were designed using Primer Express (Applied Biosystems, Foster City, Calif.) and synthesized by IDT (Coralville, Iowa). […].
# as §2
# AKT in MCF-7 cells = assay: AKT phosphorylation after IGF-1 stimulation in klotho-silenced MCF-7 cells; assay type: cell-based, human; conditions: compared to siRNAc transfected cells
# Text: as §1
# The effect of silencing of klotho protein in MCF-7 cells, using siRNA3, was also studied.
# IGF-1R in MCF-7 cells = assay: IGF-1R phosphorylation in MCF-7 cells treated with soluble klotho protein; assay type: cell-based, human; conditions: klotho 15 min, then IGF-1 12.5 nM
# Text: Soluble klotho protein was generated essentially as described (Kurosu et al., 2005). In brief, insect cells, which stably express V5-tagged soluble klotho protein, were generated using the Drosophila Expression System (Invitrogen). A cDNA fragment encoding the entire extracellular domain of mouse Klotho protein (amino acid residues 31 to 982 of SEQ ID NO: 3) was inserted into a pMT/BiP/V5-His expression vector, allowing inducible expression from metallothionein promoter and secretion of the recombinant protein with V5 and 6×His tags at the C-terminus into conditioned medium. The expression vector was transfected into Drosophila Schneider cells by the calcium phosphate method together with pCoHYGRO selection vector. […]
# As klotho protein may also be shed and act as a circulating hormone (Kuro-o et al., 1997; Matsumura et al., 1998), the ability of soluble klotho protein to inhibit activation of the IGF-1 pathway in MCF-7 cells was tested. V5-tagged soluble klotho protein was generated as described under “Materials and Methods”, its expression and purity were examined using Coomassie staining and its concentration was determined (data not shown). MCF-7 cells were treated with klotho protein for 15 min and, stimulated with IGF-1 (12.5 nM, 15 min), and expression and phosphorylation of the IGF-1R was determined.
# [2] = system: IGF-1 pathway in Panc1 cells; assay: IGF-1 pathway in Panc1 cells treated with soluble klotho protein (immunoblot); assay type: cell-based, human; conditions: klotho 10 min, then IGF-1 12.5 nM, 15 min
# Description: For pancreatic cells, protein extraction and Western blotting was performed as described (Wolf et al., 2008).
# Since klotho protein is shed and may act as a circulating hormone, the ability of soluble klotho protein to inhibit activation of the IGF-1 pathway in Panc1 cells was tested. V5-tagged soluble klotho protein was generated as described [Kurosu H. et al., 2005]. Panc1 cells were treated with klotho protein for 10 min and stimulated with IGF-1 (12.5 nM, 15 min), and expression and phosphorylation of the IGF-1R, AKT and ERK1/2 was determined.
# Panc1 cells [3] = assay: In vivo Panc1 tumors in athymic mice treated with sol-hKL or sol-hKL1; conditions: i.p. five days a week for five weeks; for tumor growth (tumor volume and weight): sol-hKL 2.5 μg/kg, sol-hKL1 10 or 25 μg/kg, p<0.05
# Description: The in vivo growth inhibitory activity of sol-hKL1, compared to sol-hKL, on pancreatic cancer cells was examined (FIG. 17C-G). Panc1 cells were injected into one flank of athymic mice and mice were treated with intraperitoneal injections of either control vehicle (N=12), sol-hKL (2.5 μg/kg, N=7), or sol-hKL1 (10 μg/kg, N=6; 25 μg/kg, N=7), five days a week for five weeks. Weight of mice (FIG. 17C) and tumor volume (FIG. 17D) in control and treated groups were monitored weekly and tumor weight was measured on day of sacrifice (FIG. 17E).
# MiaPaCa2 cells = assay: In vivo MiaPaCa2 tumors in athymic mice treated with sol-hKL or sol-hKL1; conditions: sol-hKL 2.5 μg/kg, sol-hKL1 10 μg/kg; for tumors completely regressed (number) / tumors completely regressed (percent): after four weeks
# Description: A similar experiment, with minor differences, was also performed using MiaPaCa2 cells (FIGS. 17H, 17I). Cells were injected into both flanks of athymic mice and mice were treated with either a control vehicle (N=8), sol-hKL (2.5 μg/kg, N=8) or sol-hKL1 (10 μg/kg, N=8).
# [4] = Blood counts and chemistry of treated mice; assay type: in vivo; conditions: for glucose levels: after fasting, MiaPaCa2 xenograft experiment; for blood counts or liver function tests: data not shown; for hypophosphatemia in treated mice: mouse, in vivo
# Description: The effects of sol-hKL and sol-hKL1 on blood counts and chemistry were also studied. For these studies, blood was withdrawn from control, sol-hKL-treated (2.5 μg/kg) or sol-hKL1-treated (10 μg/kg) mice, at the same day as sacrificing and tumor harvesting, following five weeks of treatment.
# Panc1 cells [5] = assay: MTT viability assay, sol-hKL or sol-hKL1; assay type: cell-based, human; conditions: 48 hrs
# Description: The activity of hKL1 was also tested. Panc1 cells were treated with either sol-hKL or sol-hKL1 for 48 hrs and viability was assessed after 48 hours by MTT assay (FIG. 17B).
# [6] = five weeks of treatment, sol-hKL 2.5 μg/kg, sol-hKL1 10 μg/kg
Molecule,changes in weight or general health of mice (Panc1 cells [3]),tumor growth (tumor volume and weight) (Panc1 cells [3]),tumors completely regressed (number) (MiaPaCa2 cells),tumors completely regressed (percent) (MiaPaCa2 cells),glucose levels [4],"blood counts or liver function tests [4, 6]",hypophosphatemia in treated mice [4],also measured
"O=c1[nH]cc(F)c(=O)[nH]1 [5-FLU, 5-Fluorouracil]",,,,,,,,reduction in viability (Panc1 cells [1]): 50%
CACCAAGAGAGAUGAUGCCAAAUAU [siRNA3],,,,,,,,increase of proliferation of MCF-7 cells (MTT assay) (MCF-7 cells): 2.5 fold; reduction of klotho protein expression (mRNA levels) (klotho protein mRNA): 88%; AKT phosphorylation following IGF-1 stimulation (AKT in MCF-7 cells): increased
B1,,,,,,,,"phosphorylation of the IGF-1 receptor (IGF-1R in MCF-7 cells): inhibited; phosphorylation of IGF-1R, AKT and ERK1/2 [2]: inhibited phosphorylation"
B2,No changes,significantly inhibited tumor growth,two,12%,mildly increased,did not affect,observed,"blood urea, cholesterol and phosphate levels [4, 6]: altered"
B3,No changes,significantly inhibited tumor growth,four,25%,did not have any significant effect,did not affect,not,tumor growth inhibition compared with sol-hKL (MiaPaCa2 cells): more effectively than sol-hKL; concentration for 50% viability reduction relative to sol-hKL (Panc1 cells [5]): 100 times; reduction of viability of Panc1 cells (Panc1 cells [5]; p<0.005 vs control): 50%
